Numbering of substitutions follows the chain as printed. Names may count otherwise.

T1: FcgRIIaR (human, UniProt P12318 34-217)
T1 construct: extracellular domain; Allotype R131; also called FcγRIIa R; FcgRIIa type R; not shown: His tag attached to the C terminus
T1 sequence (looked up): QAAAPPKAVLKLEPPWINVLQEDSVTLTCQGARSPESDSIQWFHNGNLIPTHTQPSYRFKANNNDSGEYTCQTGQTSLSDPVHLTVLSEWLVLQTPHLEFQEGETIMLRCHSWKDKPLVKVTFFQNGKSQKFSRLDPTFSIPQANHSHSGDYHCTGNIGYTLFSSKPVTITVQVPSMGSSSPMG

T2: FcgRIIaH (human, UniProt P12318 34-217)
T2 construct: extracellular domain; Allotype H131; also called FcγRIIa H; FcgRIIa type H; not shown: His tag attached to the C terminus
T2 sequence (looked up): T1 sequence (looked up) with R134H

T3: FcgRIIb (human, UniProt P31994 43-217)
T3 construct: extracellular domain; also called FcγRIIb; CD32B; not shown: His tag attached to the C terminus
T3 sequence (looked up): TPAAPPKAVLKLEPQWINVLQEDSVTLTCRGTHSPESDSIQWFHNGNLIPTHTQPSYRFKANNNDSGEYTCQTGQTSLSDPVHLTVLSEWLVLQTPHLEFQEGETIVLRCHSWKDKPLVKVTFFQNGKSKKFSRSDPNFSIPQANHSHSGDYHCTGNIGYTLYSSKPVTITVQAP

B1: GpH7-A5/GpH7-B3-03-20W/GpL16-k0 (antibody, human IgG1, kappa)
heavy 1: not shown
heavy 2: not shown
light: DIVMTQSPLSLPVTPGEPASISCQASESLVHSNRNTYLHWYLQKPGQSPQLLIYKVSNRFSGVPDRFSGSGSGTDFTLKISRVEAEDVGVYYCSQNTHVPPTFGQGTKVEIERTVAAPSVFIFPPSDEQLKSGTASVVCLLNNFYPREAKVQWKVDNALQSGNSQESVTEQDSKDSTYSLSSTLTLSKADYEKHKVYACEVTHQGLSSPVTKSFNRGEC
notes: G236W in the GpH7-B3 chain only; also called He Ab G236_20W; GpH7-A5/GpH7-B3 variant G236_20W/GpL16-k0
B2: GpH7-TA2/GpH7-B3-01-15Y/GpL16-k0 (antibody, human IgG1, kappa)
heavy 1: QVQLVQSGAEVKKPGASVTVSCKASGYTFTDYEMHWIRQPPGEGLEWIGAIDPKTGDTAYSESFQDRVTLTADKSTSTAYMELSSLTSEDTAVYYCTRFYSYTYWGQGTLVTVSSASTKGPSVFPLAPSSKSTSGGTAALGCLVKDYFPEPVTVSWNSGALTSGVHTFPAVLQSSGLYSLSSVVTVPSSSLGTQTYICNVNHKPSNTKVDKKVEPKSCDKTHTCPPCPAPELLWGPSVFLFPPKPKDTLMISRTPEVTCVVVDVSHEDPEVKFNWYVDGVEVHNAKTKPREEQYNSTYRVVSVLTVLHQDWLNGKEYKCKVSNKALPAPIEKTISKAKGQPREPQVYTLPPSRKELTKNQVSLTCLVKGFYPSDIAVEWESNGQPENNYKTTPPVLDSDGSFFLYSKLTVDKSRWQQGNVFSCSVMHEALHNRYTQKSLSLSP
heavy 2: not shown
light: B1 light
notes: H1 G236W; H2 L234Y
B3: GpH7-A5/GpH7-B3-01-15Y/GpL16-k0 (antibody, human IgG1, kappa)
heavy 1: not shown
heavy 2: not shown
light: B1 light
notes: L234Y in the GpH7-B3 chain only; also called He Ab L234_15Y; GpH7-A5/GpH7-B3 variant L234_15Y/GpL16-k0
B4: GpH7-A5/GpH7-B3-15-02A/GpL16-k0 (antibody, human IgG1, kappa)
heavy 1: not shown
heavy 2: not shown
light: B1 light
notes: H2 S298A
B5: GpH7-TA5/GpH7-B3/GpL16-k0 (antibody, human IgG1, kappa)
heavy 1: B2 heavy 1 with L232Y, W234G, S296A
heavy 2: not shown
light: B1 light
notes: H1 L234Y and S298A
B6: GpH7-TA3/GpH7-B3-03-20W/GpL16-k0 (antibody, human IgG1, kappa)
heavy 1: B2 heavy 1 with W234G, S296A
heavy 2: not shown
light: B1 light
notes: H1 S298A; H2 G236W
B7: GpH7-TA4/GpH7-B3/GpL16-k0 (antibody, human IgG1, kappa)
heavy 1: B2 heavy 1 with L232Y
heavy 2: not shown
light: B1 light
notes: H1 L234Y and G236W
B8: GpH7-TA6/GpH7-B3/GpL16-k0 (antibody, human IgG1, kappa)
heavy 1: B2 heavy 1 with S296A
heavy 2: not shown
light: B1 light
notes: H1 G236W and S298A
B9: GpH7-TA1/GpH7-B3-15-02A/GpL16-k0 (antibody, human IgG1, kappa)
heavy 1: B2 heavy 1 with L232Y, W234G
heavy 2: not shown
light: B1 light
notes: H1 L234Y; H2 S298A
B10: H240-Kn120/H240-Hl182/L73-k0 (antibody, human IgG1, kappa)
heavy 1: QDQLVQSGAEVKKPGASVKVSCKASGFNIKDTYIQWVRQAPGQGLEWMGRIDPLRKQTKYREKFEGRVTITADTSTNTAYMELSSLRSEDTAVYYCVRSGREFDYWGQGTLVTVSSASTKGPSVFPLAPSSKSTSGGTAALGCLVKDYFPEPVTVSWNSGALTSGVHTFPAVLQSSGLYSLSSVVTVPSSSLGTQTYICNVNHKPSNTKVDKKVEPKSCDKTHTCPPCPAPEYYWGPMVFLFPPKPKDTLMISRTPEVTCVVVDVSDEDPEVKFNWYVDGVEVHNAKTKPREEQYNATYRVVSVLTVLHQDWLNGKEYKCKVSNKDLPAPIEKTISKAKGQPREPQVCTLPPSRDELTKNQVSLWCLVKGFYPSDIAVEWESNGQPENNYKTTPPVLDSDGSFFLYSKLTVDKSRWQQGNVFSCSVMHEALHNHYTQKSLSLSP
heavy 2: QDQLVQSGAEVKKPGASVKVSCKASGFNIKDTYIQWVRQAPGQGLEWMGRIDPLRKQTKYREKFEGRVTITADTSTNTAYMELSSLRSEDTAVYYCVRSGREFDYWGQGTLVTVSSASTKGPSVFPLAPSSKSTSGGTAALGCLVKDYFPEPVTVSWNSGALTSGVHTFPAVLQSSGLYSLSSVVTVPSSSLGTQTYICNVNHKPSNTKVDKKVEPKSCDKTHTCPPCPHPELLGGPSVFLFPPKPKDTLMISRTPEVTCVVVDVSHEEPEVKFNWYVDGVEVHNAKTKPREEQYNSTYRVVSVLTVLHQDWLNGKEYKCKVSNDALPKPIEETISKAKGQPREPQVYTLPPSRCELTKNQVSLSCAVKGFYPSDIAVEWESNGQPENNYKTTPPVLDSDGSFFLVSKLTVDKSRWQQGNVFSCSVMHEALHNHYTQKSLSLSP
light: DIQMTQSPSSLSASVGDRVTITCRASQDIHKYIAWYQQKPGQAPRLLIQYTSTLQPGVPSRFSGSGSGTDYTFTISSLQPEDIATYYCLQYEQLRTFGGGTKVEIKRTVAAPSVFIFPPSDEQLKSGTASVVCLLNNFYPREAKVQWKVDNALQSGNSQESVTEQDSKDSTYSLSSTLTLSKADYEKHKVYACEVTHQGLSSPVTKSFNRGEC
notes: Heterodimerized anti-epiregulin IgG1 antibody; A231H in H240-Hl068
B11: H240-Kn138/H240-Hl147/L73-k0 (antibody, human IgG1, kappa)
heavy 1: B10 heavy 1 with L327W
heavy 2: B10 heavy 2 with H230A, L327W
light: B10 light
notes: Heterodimerized anti-epiregulin IgG1 antibody; L328W in both H chains
B12: H240-Kn166/H240-Hl170/L73-k0 (antibody, human IgG1, kappa)
heavy 1: B10 heavy 1 with L327A
heavy 2: B10 heavy 2 with H230A, L327A
light: B10 light
notes: Heterodimerized anti-epiregulin IgG1 antibody; L328A in both H chains
B13: H240-Kn138/H240-Hl068/L73-k0 (antibody, human IgG1, kappa)
heavy 1: B10 heavy 1 with L327W
heavy 2: B10 heavy 2 with H230A
light: B10 light
notes: Heterodimerized anti-epiregulin IgG1 antibody; L328W in H240-Kn120
B14: H240-Kn178/H240-Hl068/L73-k0 (antibody, human IgG1, kappa)
heavy 1: B10 heavy 1 with K333Y
heavy 2: B10 heavy 2 with H230A
light: B10 light
notes: Heterodimerized anti-epiregulin IgG1 antibody; K334Y in H240-Kn120
B15: H240-Kn173/H240-Hl068/L73-k0 (antibody, human IgG1, kappa)
heavy 1: B10 heavy 1 with I331Q
heavy 2: B10 heavy 2 with H230A
light: B10 light
notes: Heterodimerized anti-epiregulin IgG1 antibody; I332Q in H240-Kn120
B16: H240-Kn172/H240-Hl177/L73-k0 (antibody, human IgG1, kappa)
heavy 1: B10 heavy 1 with I331M
heavy 2: B10 heavy 2 with H230A, I331Q
light: B10 light
notes: Heterodimerized anti-epiregulin IgG1 antibody; I332M in H240-Kn120 and I332Q in H240-Hl068

T5 sequence (P12314 16-292): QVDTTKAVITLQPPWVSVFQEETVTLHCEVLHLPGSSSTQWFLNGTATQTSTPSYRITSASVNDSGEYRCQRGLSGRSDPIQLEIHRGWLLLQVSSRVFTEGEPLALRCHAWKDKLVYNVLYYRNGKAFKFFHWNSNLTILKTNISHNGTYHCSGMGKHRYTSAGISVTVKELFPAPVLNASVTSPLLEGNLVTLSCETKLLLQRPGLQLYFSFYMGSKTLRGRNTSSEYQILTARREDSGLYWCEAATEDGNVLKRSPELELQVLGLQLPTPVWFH
T4 sequence (P08637 17-208): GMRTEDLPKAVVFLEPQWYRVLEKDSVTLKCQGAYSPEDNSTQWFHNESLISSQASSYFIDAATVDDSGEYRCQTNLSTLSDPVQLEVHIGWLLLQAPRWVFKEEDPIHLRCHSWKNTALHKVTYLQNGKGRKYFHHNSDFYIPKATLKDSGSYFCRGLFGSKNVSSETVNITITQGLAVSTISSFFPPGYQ

One assay concerns the target T4, FcγRIIIa extracellular domain with C-terminal His tag (human, UniProt P08637 17-208). The assay is described as follows: SPR (Biacore), relative binding activity; GpH7-A5/GpH7-B3/GpL16-k0 = 100. For orientation: SPR reads the build-up and loss of mass on a sensor chip optically.
With B1, the “FcγRIIIa BINDING ACTIVITY” value was 140%.

As to B2, the “FcγRIIIa BINDING ACTIVITY” value was 130%.

Consider B3, for which the “FcγRIIIa BINDING ACTIVITY” value amounted to 131%.

In the case of B4, the “FcγRIIIa BINDING ACTIVITY” value worked out at 163%.

For the molecule B5, the “FcγRIIIa BINDING ACTIVITY” value is 208%.

Consider B6, for which the “FcγRIIIa BINDING ACTIVITY” value came to 70%.

On to B7, for which the “FcγRIIIa BINDING ACTIVITY” value was 168%.

In the case of B8, the “FcγRIIIa BINDING ACTIVITY” value was determined as 228%.

With B9, the “FcγRIIIa BINDING ACTIVITY” value was 142%.

In a further assay the target is T4, FcγRIIIa extracellular domain with …. The assay is described as follows: SPR (Biacore), one H chain altered; HeCon Ab GpH7-A5/GpH7-B3/GpL16-k0 = 100.
As to B1, the He/Con_3a came out at 135%.

B3 had a He/Con_3a of 130%.

Another assay has as its target T5, FcgRIa (human, UniProt P12314 16-292).
T5 construct: extracellular domain; Soluble extracellular domain expressed in FreeStyle293 cells; also called FcγRIa; FcγRI; not shown: His tag attached to the C terminus
The assay is described as follows: SPR (Biacore); KD of H240-Kn120/H240-Hl068/L73-k0 divided by KD of the sample.
In the case of B10, the “relative KD” value worked out at 0.9.

On to B11, for which the “relative KD” value was 0.5.

Turning to B12, the “relative KD” value was found to be 2.4.

Turning to B13, the “relative KD” value stood at 1.

Turning to B14, the “relative KD” value is 0.7.

Regarding B15, the “relative KD” value was determined as 1.3.

Regarding B16, the “relative KD” value worked out at 0.6.

A further assay addresses T1, FcgRIIaR. Described as above.
For the molecule B10, the “relative KD” value is 0.5.

Regarding B11, the “relative KD” value worked out at 1.8.

Consider B12, for which the “relative KD” value is 0.6.

On to B13, for which the “relative KD” value came out at 1.1.

With B14, the “relative KD” value worked out at 0.8.

Take B15: the “relative KD” value was 0.5.

Consider B16, for which the “relative KD” value was found to be 0.7.

The next assay addresses T2, FcgRIIaH. The description is as above.
Consider B10, for which the “relative KD” value was 0.5.

Consider B11, for which the “relative KD” value came to 0.3.

Turning to B12, the “relative KD” value was found to be 1.9.

As to B13, the “relative KD” value came out at 1.6.

With B14, the “relative KD” value came to 0.6.

Take B15: the “relative KD” value was 0.7.

For the molecule B16, the “relative KD” value was 0.7.

The next assay concerns the target T3, FcgRIIb. The description is as above.
With B10, the “relative KD” value stood at 0.6.

As for B11, the “relative KD” value is 1.4.

Take B12: the “relative KD” value is 0.8.

As to B13, the “relative KD” value is 1.2.

In the case of B14, the “relative KD” value came to 1.4.

For B15, the “relative KD” value came to 0.5.

Take B16: the “relative KD” value was 0.9.

For another assay, the target named is T6, FcgRIIIaF (human, UniProt P08637 17-208).
T6 construct: extracellular domain; Allotype F158; also called FcγRIIIa F; not shown: His tag attached to the C terminus
T6 sequence (P08637 17-208): as above
The description is as above.
As for B10, the “relative KD” value worked out at 0.7.

For the molecule B11, the “relative KD” value was determined as 0.1.

Regarding B12, the “relative KD” value worked out at 0.5.

Consider B13, for which the “relative KD” value amounted to 0.6.

Take B14: the “relative KD” value was 1.6.

As for B15, the “relative KD” value was found to be 1.2.

With B16, the “relative KD” value was 1.1.

A further assay deals with T7, FcgRIIIaV (human, UniProt P08637 17-208).
T7 construct: extracellular domain; Allotype V158; also called FcγRIIIa V; not shown: His tag attached to the C terminus
T7 sequence (P08637 17-208 F176V limits assumed): as the sequence (P08637 17-208) above, with F160V counted along it
The assay is described as above.
Turning to B10, the “relative KD” value came to 1.2.

For B11, the “relative KD” value was determined as 0.

With B12, the “relative KD” value turned out to be 0.4.

On to B13, for which the “relative KD” value is 0.8.

For the molecule B14, the “relative KD” value stood at 1.9.

Take B15: the “relative KD” value came to 0.9.

Turning to B16, the “relative KD” value was found to be 1.6.

The values above are taken from patent publication US20150344570A1 (published 2015).
